Reference: a protein production outcome set (Wang et al. 2014)

Test: label from the status in PepcDB records

| Sequence | protein production |
| --- | --- |
| SYDYQSAFDIIGPVMMGPSSSHTAGAVKIGNSARAVLGDMPKHIEIRYYESFAKTHQGHGTDVAIVGGAMGYSTFDSRIKSSLDIAKDENITIDIIEDEGESIGQHPNCAYIKANTKDGRYIEVIGISIGGGTIKLKGINVNGLNVELNHG | failed |
| TARLVAGLEDVQVYDGEDAVFSLDLSTIIQGTWFLNGEELKSNEPEGQVEPGALRYRIEQKGLQHRLILHAVKHQDSGALVGFSCPGVQDSAALTIQES | not failed |
| TDDEEKDNNGQGSVSVETNYLPIADPYVMFYNNKYYAYGTGGTTAGEGFACFSSDDLKNWKREGQALSATDSYGTWGFWAPEVYYVESKKKFYLFYSAEEHICVATSTTPEGPFRQEVKQPIWSEKSIDTSLFIDDDGTPYLYFVRFTDGNVIWVAQMTDDLMSIKTETLNQCIKAEVSWELLQGKVAEGPSLLKKNGVYYLIYSANHYENKGYGVGYATSDTPMGPWVKYSKNPLLQGDAATGLVGTGHGAPFQCKDGSWKYIFHAHWSAAEIQPRTSYIKDFAISDQGVVTISGTVIKPRVLK | not failed |
| THSVETPYGSVTFTVYGTPKPKRPAIFTYHDVGLNYKSCFQPLFRFGDMQEIIQNFVRVHVDAPGMEEGAPVFPLGYQYPSLDQLADMIPCILQYLNFSTIIGVGVGAGAYILSRYALNHPDTVEGLVLINIDPNAKGWMDWAAHKLTGLTSSIPDMILGHLFSQEELSGNSELIQKYRGIIQHAPNLENIELYWNSYNNRRDLNFERGGETTLKCPVMLVVGDQAPHEDAVVECNSKLDPTQTSFLKMADSGGQPQLTQPGKLTEAFKYFLQG | not failed |
| TIATSGKLNWGIRESFNNYTNGASKVEDGATLISTNNFEFKLEKATYDAAKERTEAQFRGKIVYLKYCDDMKTFTNCQLDLTIKDPKIVISNEENYVEAVVDSKQYPSGEWYKSNGPVKIANLYPGSATVDSKDNSTEWTNVVSALANPGGVKMFSEFYGENEGLAPLSFSYDG | failed |
| TIDIDLQKEVEALLDKQIKKLRSQGAKDMDNAMMVVQNPKNGDILALAGKQINKSGKMTDYDIGTFTSQFAVGSSVKGGTLLAGYQNKAIKVGETMVDEPLHFQGGLTKRSYFNKNGHVSINDKQALMHSSNVYMFKTALKLAGDPYYSGMALPSDISSPAQKLRRGLNQVGLGVKTGIDLPNETRGQIEPLTNNPGNYLDLSIGQYDTYTPLQLSQYVSTIANDGYRIQPHIGLTIHESTNKDEVGPLKKKINGTVLNKVNNTEKEIKQIQEGFKMAFNDKDGTGYVSFKDTVVPTAGKTGTAEVFQNGEPRVNSTYIGYAPIDDPKLAFSIVYTNQPVPPPWLTGGDLGRDVINYYFKQLGKDDK | failed |
| TIDSNFQNKVDEILQRNYSQIVKTIGPYSENAYVVAMNPQTGAILAMSGFHHDLATGEVTPNPLAPILNSEVPGSVVKAGTLTAGYETGVIKGNDVLTDEAILLAGSNPKASWWNASGGTTMQLTAEQALEYSSNAYMMKLVFKMMGVNYYPNMIFPYEVGDDTVFKELRKAFAEYGMGTKTGIDIPGETTGIQNKDFKDSSSAPQGGNLLDLSFGQYDTYSALQLAQYVSTVANNGIRVQPHVVEGIYGNDENGALGKILKEIEPKVLNKVNISEDQIGILQQGFYNVVNGTSPFTTARGLKSDKFSIAAKTGTAETQATDANGVNHTTVNSNLVAYAPYENPEIAISVVLPHLNDEASKPNQTIAKEVLEAYMEMYKK | failed |
| TLLLIFSFFVVTIGGLVQIVPLFYLENTIEKVEGVRPYTPLELAGRDIYIREGCYVCHSQMIRPMRDETERYGHYSLAAESMYDHPFQWGSKRTGPDLARVGERYSDEWHVDHLTNPQSVVPESIMPKYGFLSHTVIDGRYIRDLMSVHRIVGVPYSDEMLENAVADFKAQANPDADTDGLLERYGKAAVRNFDGQAELTEMDALISYLQVLGT | failed |
| TMNNEMSDPQIEEFYTIVKELEKFDTFTNFLDVHQPELAIVFGRTKRRVDELTSALISKGYKAEGLHGDITQAKRLEVLKKFKNDQINILVATDVAARGLDISGVSHVYNFDIPQDTESYTHRIGRTGRAGKEGIAVTFVNPIEMDYIRQIEDANGRKMSALRPPHRKEVLQAREDDIKEKVENWMSKESESRLKRISTELLNEYNDVDLVAALLQELVEANDEVEVQLTFEKPLSRKGRNGKPSGSR | failed |
| TNLAALSLDSLVAPDTPIQFDIISPVCEDQPGQAKAFGQGGRRTNPFGESGGSTKSETEDSILHQLFIVRFLGSMEVKSDDHPDVVYETMRQILAARAIHNIFRMTESHLLVTCDCLKLIDPQTQVTRLTFPLPCVVLYATHQENKRLFGFVLRTSSGRSESNLSSVCYIFESNNEGEKICDSVGLAKQIAL | failed |
| TNWASGEDDHVVARAEYDFVAVSDEEISFRAGDMLNLALKEQQPKVRGWLLASLDGQTTGLIPANYVKILGKRRGRKTIE | not failed |
| TPAVVERADADSQYEILVGGQRAGLTAYRDLGAQRVFFHTEIDEAFAGQGLASQLVQQALVDVRASGMRIVPVCPYVAKFLKRHDEFADITDPVTPEVLRW | not failed |
| TRKVLVLDLDNTLWGGVIGDDGIEGIVIGEGSARGEAFKAFQLYCRALRERGILLAVSSKNDPERALAAFDHPEMVLRRSDFAAFVANWEDKGQGLQRIAQELNLGLEALVFFDDNPAERALLREQFPAVAVPEVPEEPETYIRCLAAAGLFEAV | failed |
| TTQNELLNRIAELETKVAFQDNVIEELNQVLIHHQFVLDKLQTQVRHFANKFKNIQSSNVASQAEETPPPHY | failed |
| TTSDNTALFYRHWPTLLPGAKKVIVLFHRGHEHSGRLQHIVDELAMPDTAFYAWDARGHGQTSGPRGYSPSLARSVQDVDEFVRFAASDSQVGLEEVVVIAQSVGAVMVATWVHDYAPAIRGLVLASPAFKVKLYVPLARPGLALWHRLRGLFFINSYVKGRYLTHDRQRVASFNNDPLITRAIAVNILLDLYKTSERIVSDAAAITLPTQLLISGDDYVVHRQPQIDFYQRLRSPLKELHLLPGFYHDTLGEENRAQAFEKMQSFISRLYA | failed |
| TVAVSQIVEHPALDATRQGLLDGLKAKGYEEGKNLEFDYKTAQGNPAIAVQIARQYVGESPDVLVGIATPSAQALVSATRTIPVVFTAVTDPVGAKLVKSMKQPGKNVTGLSDLSPVAQHVELIQEILPQVKSIGVVFNPGEANAVTLVNLLKESAEAKGIKVVEATALKSADVQSATQAIAAKSDILYAPTDNTVASAIEGMIVAANQAKKPVFGGATSYVEKGAIAGLGFDYYQVGVQTADYVAAILDGQEPGKLDVKVATGSDLVINESAASKLGIQLPSSVVQRATSMQ | not failed |
| TVDRSVAIVGTRAMSHYGKSATSMLAAGIADHHWTIVSGGALGVDTVAHTEALQRQKPTVAVCARGLDAPYPRKNAELLRSIVETGCLVSEYAPGLTPHRHRFLTRNRLVAALSQGTVVVEAAWRSGALNTLSWASALGRVAMAVPGPVTNTGSLGCHERIRNKEAELVCSAEEILALVGTLGEFDPN | failed |
| TVDWASMKWARPYLNTNSLGANPKQPGDVAKVGDLVRLLRQDDGSLKFSQIPVAQSALVSLDPQNGAIRALVGGFAFEQSNYNRAMQAKRQPGSSFKPFIYSAALDNGYTASSLVNDAPIVFVDEYLDKVWRPKNDTNTFLGPIRLREALYKSRNLVSIRLLQALGVDSTIDYITRFGFAKQDLPRNLSLALGTATLTPMEIATGWATFANGGYKVSPYLIQTIENRDGQTLFVANPPSVPVNDVNTAPNTSTFAVHDSPSVVASPPGSPAQPQAPAVAERIVDGRTTYILNSMLQDVIKRGTGRRALSMNRPDIAGKTGTTNDSKDAWFSGYNADYVTTVWSGFDQPESLGRHEFGGTVSLPIWMDYMSAALKDKPPHQQ | failed |
| TVEEVIEETPEKSELELANERADEFENKYLRAHAEMQNIQRRSSEERQQLQRYRSQDLAKAILPSLDNLERALAVEGLTDDVKKGLEMTRDSLIQALKEEG | not failed |
| TVHKQDGKVLEIELSSLKEALSFVSLIDGYYRLTADAHHYLCKEVAPPAVLENIHSNCHGPISMDFAISKLKKAGNQTGLYVLRCSPKDFNKYFLTFAVERENVIEYKHCLITKNENGEYNLSGTKRNFSNLKDLLNCYQMETVRSDSIIFQFTKCCPPKPKDKSNLLVFRTNGISDVQISPTLQRHNNVNQMVFHKIRNEDLIFNESLGQGTFTKIFKGVRREVGDYGQLHKTEVLLKVLDKAHRNYSESFFEAASMMSQLSHKHLVLNYGVCVCGEENILVQEFVKFGSLDTYLKKNKNSINILWKLGVAKQLAWAMHFLEEKSLIHGNVCAKNILLIREEDRRTGNPPFIKLSDPGISITVLPKDILQERIPWVPPECIENPKNLNLATDKWSFGTTLWEICSGGDKPLSALDSQRKLQFYEDKHQLPAPKWTELANLINNCMDYEPDFRPAFRAVIRDLNSLFTPDYELLTENDMLPNMRIGALGFSGAFEDRDPTQFEERHLKFLQQLGKGNFGSVEMCRYDPLQDNTGEVVAVKKLQHSTEEHLRDFEREIEILKSLQHDNIVKYKGVCYSAGRRNLRLIMEYLPYGSLRDYLQKHKERIDHKKLLQYTSQICKGMEYLGTKRYIHRDLATRNILVENENRVKIGDFGLTKVLPQDKEYYKVKEPGESPIFWYAPESLTESKFSVASDVWSFGVVLYELFTYIEKSKSPPVEFMRMIGNDKQGQMIVFHLIELLKSNGRLPRPEGCPDEIYVIMTECWNNNVSQRPSFRDLSLRVDQIRDSIAA | failed |
| TYIDGSIKRKHLVQNNQPVTLYWLRFQKSIVDTNKQDLQQSLQINTGQEPKTQALAQQILKQSDADPARYVKNILDWYRQQDFIYTLSPEQLNGNRTDQFLFQTRNGFCEHYASSFVLLMRYAGIPARVVIGYQGGQLAPDAQSLEVRQLDAHAWAEVLIDDSWHRIDPTAAIAPARLEHGMQYYLQEDRRIWGSEQHLFWKQQNFHLIQSFRVWSDYLQYQWQSKVIGYNVDQQKSFFSKLGIRSVYSAIVIMLLSICGLVIVYGIYVAYKRRGQSSFIEYQISRFQRKMSPSMKKQKSETFKVW | failed |
| VAEVPEEHKSKDGNTTVGYVIFFYTYSTWKGRTVYMEDLYVMPEFRGNGIGKALLGAVAKEAKDQLCSRLQFSVLDWNKPSLDFYMAKGAEDLTAKEGWHFLRFHGMALDNLAQEAP | failed |
| VARCQVPDCEADISELKGYHKRHRVCLRCATASFVVLDGENKRYCQQCGKFHLLPDFDEGKRSCRRKLERHNNRRKRKPVDKGGVA | not failed |
| VDEPESMVNLAFVKNDSYEKGPDSVVVHVYVKEICRDTSRVLFREQDFTLIFQTRDGNFLRLHPGCGPHTTFRWQVKLRNLIEPEQCTFCFTASRIDICLRKRQSQRWGGLEAPAARVGGA | not failed |
| VDMDVTTAKLVVGFRGYLTLTQHSLLTYRIALKLFLSMLIGWTSKIYHTLYEDGKIDDSFDVDVEIHHNFQFVLISLDTPEPIAMSNYIRQKLATIKISKEFTNEHLNLLKKEMYGDFIQSLDSIEHLTHQFSLYLSDSDKETYFDIPKIIERLTLKDVVTIGKAFFEKADASDFTVFPK | failed |
| VDMLLVGAGIMSATLAVLLKELDPNLKMEVVELQESGAIESSNPWNNAGTGHAGLCELNYTPQSADGSIDIKKAVGINTMFEVSKQFWSHLVAKGTFGSPKTFINPVPHLSFVRGSEGIAYLKKRFESLTKHHAFETMVYSEDKATLAEWMPLMMPGRPADEAIAATRVEGGTDVNFGALTNQLLQHLAQQPGAQIRYNQKVTHLRRADNGWRVTVKDTRNGGDREIQARFVFLGAGGGALPLLQLSGIPEGKGFGGFPVSGQWLRCDNPEIVKQHQAKVYSQAEVGSPPMSVPHLDTRVVDGKKSLLFGPYAGFSTKFLRHGSFLDLPLSVRPGNILPMLSVARDNMDLTRYLIGQVMQSPEQRLEALRKFYPEARAEDWRLEVAGQRVQIIKKDPKKGGILQFGTELVAAHDGSIAALLGASPGASVTVSIMLGLIERCFPEQARSPEWSAKLKEIFPAREKELESDAELYRSVSSRCSEVLELTAKNDVQAPVNAE | failed |
